Assay results published in patent US5521072.

Molecular target: recombinant Actinobacillus pleuropneumoniae serotype 7 60 kDa transferrin binding protein (Actinobacillus pleuropneumoniae serotype 7 strain AP205)
Assay: competitive ELISA, 50% inhibition value, solid phase porcine transferrin

“bovine apotransferrin (from UniProt Q29443) (ligand)” and “bovine transferrin, iron replete (from UniProt Q29443) (ligand)” cannot be ordered by IC50: > 1000 µg/mL for the first, > 1000 µg/mL for the second.

“human apotransferrin (from UniProt P02787) (ligand)” and “human transferrin, iron replete (from UniProt P02787) (ligand)” cannot be ordered by IC50: > 1000 µg/mL for the first, > 1000 µg/mL for the second.

Compared with “porcine TF, NH2-terminus (from UniProt P09571) (ligand)”, “porcine apotransferrin (from UniProt P09571) (ligand)” is 7.5-fold higher in IC50: 20 µg/mL for the first, 150 µg/mL for the second.

Molecular target: recombinant Actinobacillus pleuropneumoniae serotype 7 60 kDa transferrin binding protein (Actinobacillus pleuropneumoniae serotype 7 strain AP205)
Assay: competitive ELISA, 50% inhibition value; competitor preincubated with the recombinant 60 kDa protein, solid phase porcine transferrin

“porcine transferrin (TF), iron replete (from UniProt P09571) (ligand)” gave an IC50 of 25 µg/mL.
